From patent publication US20210388110A1 (published 2021)
Residue numbers refer to the chain shown, from its start.

B1: TR01H067-E22Hh/none-Hi-Kn010G3/L0000-k0 (antibody, human IgG1, kappa, L234A L235A, N297A)
heavy: QVQLVESGGGLVQPGRSLRLSCAASGFTFSNAWMHWVRQAPGKGLEWVAQIKDKSQNYATYYAESVKGRFTISRDDSKNSLYLQMNSLKTEDTAVYYCRYVHYAASYGVDAWGQGTTVTVSSASTKGPSVFPLAPSSKSTSGGTAALGCLVKDYFPEPVTVSWNSGALTSGVHTFPAVLQSSGLYSLSSVVTVPSSSLGTQTYICNVNHKPSNTKVDKKVEPKSCDKTHTCPPCPAPEAAGGPSVFLFPPKPKDTLMISRTPEVTCVVVDVSHEDPEVKFNWYVDGVEVHNAKTKPREEQYASTYRVVSVLTVLHQDWLNGKEYKCKVSNKALPAPIEKTISKAKGQPREPQVYTLPPSRCELTKNQVSLSCAVKGFYPSDIAVEWESNGQPENNYKTTPPVLDSDGSFFLVSKLTVDKSRWQQGNVFSCSVMHEALHNHYTQKSLSLSPDYKDDDDK
chain: EPKSSDKTHTCPPCPAPELLGGPSVFLFPPKPKDTLMISRTPEVTCVVVDVSHEDPEVKFNWYVDGVEVHNAKTKPREEQYNSTYRVVSVLTVLHQDWLNGKEYKCKVSNKALPAPIEKTISKAKGQPREPQVCTLPPSRDELTKNQVSLWCLVKGFYPSDIAVEWESNGQPENNYKTTPPVLDSDGSFFLYSKLTVDKSRWQQGNVFSCSVMHEALHNRYTQKSLSLSP
light: DIVMTQSPLSLPVTPGEPASISCRSSQSLVHSNRNTYLHWYQQKPGQAPRLLIYKVSNRFSGVPDRFSGSGSGTDFTLKISRVEAEDVGVYYCGQGTQVPYTFGQGTKLEIKRTVAAPSVFIFPPSDEQLKSGTASVVCLLNNFYPREAKVQWKVDNALQSGNSQESVTEQDSKDSTYSLSSTLTLSKADYEKHKVYACEVTHQGLSSPVTKSFNRGEC
notes: one-arm antibody (single Fab) with Fab-less hinge-Fc chain Hi-Kn010G3
B2: TR01H015-E22Hh/none-Hi-Kn010G3/TR01L002-k0 (antibody, human IgG1, kappa, L234A L235A, N297A)
heavy: B1 heavy with D53G, Q56N, D75A, L81I, A104S, A111I
chain: B1 chain
light: B1 light with Q42L, A48S, R50Q
notes: as for B1
B3: TR01H011-E22Hh/none-Hi-Kn010G3/L0000-k0 (antibody, human IgG1, kappa, L234A L235A, N297A)
heavy: B1 heavy with D53A, Q56N, D75A, L81I, A104G, A111I
chain: B1 chain
light: B1 light
notes: as for B1
B4: TR01H008-E22Hh/none-Hi-Kn010G3/L0000-k0 (antibody, human IgG1, kappa, L234A L235A, N297A)
heavy: B1 heavy with D53G, Q56N, D75A, L81I, A104G, S106Y, A111I
chain: B1 chain
light: B1 light
notes: as for B1
B5: TR01H022-E22Hh/none-Hi-Kn010G3/L0000-k0 (antibody, human IgG1, kappa, L234A L235A, N297A)
heavy: B1 heavy with R16G, D53G, E64P, D75A, L81I, A104S, A111I
chain: B1 chain
light: B1 light
notes: as for B1
B6: CE115HA124-E22Hh//-Hi-Kn010G3/L0000-k0 (antibody, human IgG1, kappa, L234A L235A, N297A)
heavy: B1 heavy with L11V, D53A, K54L, Q56N, A104G, S106Y
chain: B1 chain
light: B1 light
notes: one-arm antibody (single Fab) with Fab-less hinge-Fc chain Hi-Kn010G3; label '//-Hi-Kn010G3' read as none-Hi-Kn010G3
B7: TR01H021-E22Hh/none-Hi-Kn010G3/L0000-k0 (antibody, human IgG1, kappa, L234A L235A, N297A)
heavy: B1 heavy with D53G, Q56N, D75A, L81I, A104S
chain: B1 chain
light: B1 light
notes: as for B1
B8: TR01H004-E22Hh//-Hi-Kn010G3/L0000-k0 (antibody, human IgG1, kappa, L234A L235A, N297A)
heavy: B1 heavy with L11V, D53A, Q56N, Y100R, A104Y, A105Y, S106Y
chain: B1 chain
light: B1 light
notes: as for B6
B9: TR01H009-E22Hh/none-Hi-Kn010G3/L0000-k0 (antibody, human IgG1, kappa, L234A L235A, N297A)
heavy: B1 heavy with D53A, Q56N, E64P, D75A, L81I, A104G, S106Y, A111I
chain: B1 chain
light: B1 light
notes: as for B1
B10: TR01H015-E22Hh/none-Hi-Kn010G3/TR01L004-k0 (antibody, human IgG1, kappa, L234A L235A, N297A)
heavy: B1 heavy with D53G, Q56N, D75A, L81I, A104S, A111I
chain: B1 chain
light: B1 light with R24Q, S25A, Q27E, L109V, K112E
notes: as for B1
B11: TR01H010-E22Hh/none-Hi-Kn010G3/L0000-k0 (antibody, human IgG1, kappa, L234A L235A, N297A)
heavy: B1 heavy with D53A, Q56N, D75A, L81I, A104S, S106Y, A111I
chain: B1 chain
light: B1 light
notes: as for B1
B12: TR01H040-E22Hh/none-Hi-Kn010G3/L0000vk1-k0 (antibody, human IgG1, kappa, L234A L235A, N297A)
heavy: B1 heavy with D75A, L81I, A104S
chain: B1 chain
light: DIQMTQSPSSLSASVGDRVTITCRSSQSLVHSNRNTYLHWYQQKPGKAPKLLIYKVSNRFSGVPSRFSGSGSGTDFTFTISSLQPEDIATYYCGQGTQVPYTFGQGTKVEIKRTVAAPSVFIFPPSDEQLKSGTASVVCLLNNFYPREAKVQWKVDNALQSGNSQESVTEQDSKDSTYSLSSTLTLSKADYEKHKVYACEVTHQGLSSPVTKSFNRGEC
notes: single-arm
B13: TR01H080-E22Hh/none-Hi-Kn010G3/L0000-k0 (antibody, human IgG1, kappa, L234A L235A, N297A)
heavy: QVQLVESGGGLVQPGRSLRLSCAASGFTFSNAWMHWVRQAPGKGLEWVAQIKDKSNNYATYYAESVKGRFTISRADSKNSIYLQMNSLKTEDTAVYYCRYVHYAAVRRRLSSYGVDIWGQGTTVTVSSASTKGPSVFPLAPSSKSTSGGTAALGCLVKDYFPEPVTVSWNSGALTSGVHTFPAVLQSSGLYSLSSVVTVPSSSLGTQTYICNVNHKPSNTKVDKKVEPKSCDKTHTCPPCPAPEAAGGPSVFLFPPKPKDTLMISRTPEVTCVVVDVSHEDPEVKFNWYVDGVEVHNAKTKPREEQYASTYRVVSVLTVLHQDWLNGKEYKCKVSNKALPAPIEKTISKAKGQPREPQVYTLPPSRCELTKNQVSLSCAVKGFYPSDIAVEWESNGQPENNYKTTPPVLDSDGSFFLVSKLTVDKSRWQQGNVFSCSVMHEALHNHYTQKSLSLSPDYKDDDDK
chain: B1 chain
light: B1 light
notes: single-arm
B14: TR01H077-E22Hh/none-Hi-Kn010G3/L0200-k0 (antibody, human IgG1, kappa, L234A L235A, N297A)
heavy: QVQLVESGGGLVQPGRSLRLSCAASGFTFSNAWMHWVRQAPGKGLEWVAQIKDKSNNYATYYAESVKGRFTISRADSKNSIYLQMNSLKTEDTAVYYCRYVHYAAAEMVRDDIWGQGTTVTVSSASTKGPSVFPLAPSSKSTSGGTAALGCLVKDYFPEPVTVSWNSGALTSGVHTFPAVLQSSGLYSLSSVVTVPSSSLGTQTYICNVNHKPSNTKVDKKVEPKSCDKTHTCPPCPAPEAAGGPSVFLFPPKPKDTLMISRTPEVTCVVVDVSHEDPEVKFNWYVDGVEVHNAKTKPREEQYASTYRVVSVLTVLHQDWLNGKEYKCKVSNKALPAPIEKTISKAKGQPREPQVYTLPPSRCELTKNQVSLSCAVKGFYPSDIAVEWESNGQPENNYKTTPPVLDSDGSFFLVSKLTVDKSRWQQGNVFSCSVMHEALHNHYTQKSLSLSPDYKDDDDK
chain: B1 chain
light: B1 light with S25P, L29P
notes: single-arm
B15: TR01H079-E22Hh/none-Hi-Kn010G3/L0000-k0 (antibody, human IgG1, kappa, L234A L235A, N297A)
heavy: B13 heavy with V106A, R107E, R108M, R109V, L110R, S111D
chain: B1 chain
light: B1 light
notes: single-arm

Target: T1, soluble human CD3ε chain (human, UniProt P07766 23-126, limits assumed)
T1 construct: also called human CD3 epsilon chain
Assay: SPR (Biacore), soluble human CD3ε chain
T1 sequence (P07766 23-126 limits assumed): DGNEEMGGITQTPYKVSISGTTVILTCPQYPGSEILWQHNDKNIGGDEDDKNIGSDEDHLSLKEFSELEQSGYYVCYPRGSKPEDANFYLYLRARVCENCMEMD

Binder	Kd [nM]
B1	71.5
B2	71.4
B3	37.1
B4	42.2
B5	75.8
B6	143
B7	80.5
B8	135
B9	31.5
B10	73.4
B11	37.3

Target: T2, soluble human CD3ε chain (human, UniProt P07766 23-126, limits assumed)
T2 construct: the text says soluble human CD3ε chain; also called human CD3 epsilon chain
Assay: SPR (Biacore)
T2 sequence (P07766 23-126 limits assumed): as above

Binder	Kd [nM]
B12	46.9
B13	3.25
B14	6.12
B15	50.5
